Patent US20210139548A1 (published 2021)
One block for each binder: values may come before it. *1 amine or outer side, *2 acyl side, *3 side chain or, on linkers, in order; H or OH if unused. Side-chain parts run from the residue outwards. The star is where a group is joined. C18 diacid = O=C(O)CCCCCCCCCCCCCCCCC(=O)*; γGlu = O=C(O)[C@H](CCC(=O)[*:2])N[*:1]; Isovaleryl = CC(C)CC(=O)*; AEEA = NCCOCCOCC(=O)O

Target: T1, human neuropeptide Y2 receptor (human, UniProt P49146 1-381)
T1 construct: whole, on cells; also called hNPY2 receptor; hNPY2-R
T1 sequence (looked up): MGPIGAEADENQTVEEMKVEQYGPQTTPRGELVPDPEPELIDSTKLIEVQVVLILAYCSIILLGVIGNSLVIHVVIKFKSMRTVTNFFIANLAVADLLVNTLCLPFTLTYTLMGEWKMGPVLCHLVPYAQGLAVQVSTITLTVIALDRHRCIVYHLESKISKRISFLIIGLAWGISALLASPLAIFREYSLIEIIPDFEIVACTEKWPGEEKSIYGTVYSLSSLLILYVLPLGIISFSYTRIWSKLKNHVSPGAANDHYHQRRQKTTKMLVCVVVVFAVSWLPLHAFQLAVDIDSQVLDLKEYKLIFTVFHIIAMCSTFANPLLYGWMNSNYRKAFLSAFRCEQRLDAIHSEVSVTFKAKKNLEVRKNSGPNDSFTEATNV
Assay: radioligand competition (125I-PYY(1-36)), hNPY2R membranes
In short: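 Commercial human Y2 receptor membranes (0.5 μg protein/well) were incubated with peptide for 2 h at room temperature in 50 mM HEPES, 5 mM MgCl₂, 1 mM CaCl₂, pH 7.4, with 0.2% ovalbumin. Bound radioligand was separated on PEI-soaked GF/C filters and counted by scintillation, and IC₅₀ came from nonlinear sigmoidal regression.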

B1: Compound 34 (peptide)
peptide: Isovaleryl-APEK([AEEA-AEEA-γGlu-C18 diacid])PEEDASPEELQRYYVSTRHYYNWLTRQRY-NH2
SMILES: CC(C)CC(=O)N[C@@H](C)C(=O)N1CCC[C@H]1C(=O)N[C@@H](CCC(=O)O)C(=O)N[C@@H](CCCCNC(=O)COCCOCCNC(=O)COCCOCCNC(=O)CC[C@H](NC(=O)CCCCCCCCCCCCCCCCC(=O)O)C(=O)O)C(=O)N1CCC[C@H]1C(=O)N[C@@H](CCC(=O)O)C(=O)N[C@@H](CCC(=O)O)C(=O)N[C@@H](CC(=O)O)C(=O)N[C@@H](C)C(=O)N[C@@H](CO)C(=O)N1CCC[C@H]1C(=O)N[C@@H](CCC(=O)O)C(=O)N[C@@H](CCC(=O)O)C(=O)N[C@@H](CC(C)C)C(=O)N[C@@H](CCC(N)=O)C(=O)N[C@@H](CCCNC(=N)N)C(=O)N[C@@H](Cc1ccc(O)cc1)C(=O)N[C@@H](Cc1ccc(O)cc1)C(=O)N[C@H](C(=O)N[C@@H](CO)C(=O)N[C@H](C(=O)N[C@@H](CCCNC(=N)N)C(=O)N[C@@H](Cc1c[nH]cn1)C(=O)N[C@@H](Cc1ccc(O)cc1)C(=O)N[C@@H](Cc1ccc(O)cc1)C(=O)N[C@@H](CC(N)=O)C(=O)N[C@@H](Cc1c[nH]c2ccccc12)C(=O)N[C@@H](CC(C)C)C(=O)N[C@H](C(=O)N[C@@H](CCCNC(=N)N)C(=O)N[C@@H](CCC(N)=O)C(=O)N[C@@H](CCCNC(=N)N)C(=O)N[C@@H](Cc1ccc(O)cc1)C(N)=O)[C@@H](C)O)[C@@H](C)O)C(C)C
Ki: 6.4 nM

B5: Compound 35 (peptide)
peptide: Isovaleryl-APEK([AEEA-AEEA-γGlu-C18 diacid])PEEDAAPEETQRYYVSLRHYYNWLTRQRY-NH2
SMILES: CC(C)CC(=O)N[C@@H](C)C(=O)N1CCC[C@H]1C(=O)N[C@@H](CCC(=O)O)C(=O)N[C@@H](CCCCNC(=O)COCCOCCNC(=O)COCCOCCNC(=O)CC[C@H](NC(=O)CCCCCCCCCCCCCCCCC(=O)O)C(=O)O)C(=O)N1CCC[C@H]1C(=O)N[C@@H](CCC(=O)O)C(=O)N[C@@H](CCC(=O)O)C(=O)N[C@@H](CC(=O)O)C(=O)N[C@@H](C)C(=O)N[C@@H](C)C(=O)N1CCC[C@H]1C(=O)N[C@@H](CCC(=O)O)C(=O)N[C@@H](CCC(=O)O)C(=O)N[C@H](C(=O)N[C@@H](CCC(N)=O)C(=O)N[C@@H](CCCNC(=N)N)C(=O)N[C@@H](Cc1ccc(O)cc1)C(=O)N[C@@H](Cc1ccc(O)cc1)C(=O)N[C@H](C(=O)N[C@@H](CO)C(=O)N[C@@H](CC(C)C)C(=O)N[C@@H](CCCNC(=N)N)C(=O)N[C@@H](Cc1c[nH]cn1)C(=O)N[C@@H](Cc1ccc(O)cc1)C(=O)N[C@@H](Cc1ccc(O)cc1)C(=O)N[C@@H](CC(N)=O)C(=O)N[C@@H](Cc1c[nH]c2ccccc12)C(=O)N[C@@H](CC(C)C)C(=O)N[C@H](C(=O)N[C@@H](CCCNC(=N)N)C(=O)N[C@@H](CCC(N)=O)C(=O)N[C@@H](CCCNC(=N)N)C(=O)N[C@@H](Cc1ccc(O)cc1)C(N)=O)[C@@H](C)O)C(C)C)[C@@H](C)O
Ki: 1.21 nM

B6: Compound 36 (peptide)
peptide: Isovaleryl-APEK([AEEA-AEEA-γGlu-C18 diacid])AEEDAEPEELQRYYVSLRHYYNWLTRQRY-NH2
SMILES: CC(C)CC(=O)N[C@@H](C)C(=O)N1CCC[C@H]1C(=O)N[C@@H](CCC(=O)O)C(=O)N[C@@H](CCCCNC(=O)COCCOCCNC(=O)COCCOCCNC(=O)CC[C@H](NC(=O)CCCCCCCCCCCCCCCCC(=O)O)C(=O)O)C(=O)N[C@@H](C)C(=O)N[C@@H](CCC(=O)O)C(=O)N[C@@H](CCC(=O)O)C(=O)N[C@@H](CC(=O)O)C(=O)N[C@@H](C)C(=O)N[C@@H](CCC(=O)O)C(=O)N1CCC[C@H]1C(=O)N[C@@H](CCC(=O)O)C(=O)N[C@@H](CCC(=O)O)C(=O)N[C@@H](CC(C)C)C(=O)N[C@@H](CCC(N)=O)C(=O)N[C@@H](CCCNC(=N)N)C(=O)N[C@@H](Cc1ccc(O)cc1)C(=O)N[C@@H](Cc1ccc(O)cc1)C(=O)N[C@H](C(=O)N[C@@H](CO)C(=O)N[C@@H](CC(C)C)C(=O)N[C@@H](CCCNC(=N)N)C(=O)N[C@@H](Cc1c[nH]cn1)C(=O)N[C@@H](Cc1ccc(O)cc1)C(=O)N[C@@H](Cc1ccc(O)cc1)C(=O)N[C@@H](CC(N)=O)C(=O)N[C@@H](Cc1c[nH]c2ccccc12)C(=O)N[C@@H](CC(C)C)C(=O)N[C@H](C(=O)N[C@@H](CCCNC(=N)N)C(=O)N[C@@H](CCC(N)=O)C(=O)N[C@@H](CCCNC(=N)N)C(=O)N[C@@H](Cc1ccc(O)cc1)C(N)=O)[C@@H](C)O)C(C)C
Ki: 10.6 nM

Continued, values first:

Ki: 1.21 nM
B2: Compound 40 (peptide)
peptide: Isovaleryl-APEK([AEEA-AEEA-γGlu-C18 diacid])PEEDATPEETQRYYVSLRHYYNWLTRQRY-NH2
SMILES: CC(C)CC(=O)N[C@@H](C)C(=O)N1CCC[C@H]1C(=O)N[C@@H](CCC(=O)O)C(=O)N[C@@H](CCCCNC(=O)COCCOCCNC(=O)COCCOCCNC(=O)CC[C@H](NC(=O)CCCCCCCCCCCCCCCCC(=O)O)C(=O)O)C(=O)N1CCC[C@H]1C(=O)N[C@@H](CCC(=O)O)C(=O)N[C@@H](CCC(=O)O)C(=O)N[C@@H](CC(=O)O)C(=O)N[C@@H](C)C(=O)N[C@H](C(=O)N1CCC[C@H]1C(=O)N[C@@H](CCC(=O)O)C(=O)N[C@@H](CCC(=O)O)C(=O)N[C@H](C(=O)N[C@@H](CCC(N)=O)C(=O)N[C@@H](CCCNC(=N)N)C(=O)N[C@@H](Cc1ccc(O)cc1)C(=O)N[C@@H](Cc1ccc(O)cc1)C(=O)N[C@H](C(=O)N[C@@H](CO)C(=O)N[C@@H](CC(C)C)C(=O)N[C@@H](CCCNC(=N)N)C(=O)N[C@@H](Cc1c[nH]cn1)C(=O)N[C@@H](Cc1ccc(O)cc1)C(=O)N[C@@H](Cc1ccc(O)cc1)C(=O)N[C@@H](CC(N)=O)C(=O)N[C@@H](Cc1c[nH]c2ccccc12)C(=O)N[C@@H](CC(C)C)C(=O)N[C@H](C(=O)N[C@@H](CCCNC(=N)N)C(=O)N[C@@H](CCC(N)=O)C(=O)N[C@@H](CCCNC(=N)N)C(=O)N[C@@H](Cc1ccc(O)cc1)C(N)=O)[C@@H](C)O)C(C)C)[C@@H](C)O)[C@@H](C)O

Ki: 4.85 nM
B3: Compound 37 (peptide)
peptide: Isovaleryl-APEK([AEEA-AEEA-γGlu-C18 diacid])PEEDASPEETQRYEVSLRHYYNWLTRQRY-NH2
SMILES: CC(C)CC(=O)N[C@@H](C)C(=O)N1CCC[C@H]1C(=O)N[C@@H](CCC(=O)O)C(=O)N[C@@H](CCCCNC(=O)COCCOCCNC(=O)COCCOCCNC(=O)CC[C@H](NC(=O)CCCCCCCCCCCCCCCCC(=O)O)C(=O)O)C(=O)N1CCC[C@H]1C(=O)N[C@@H](CCC(=O)O)C(=O)N[C@@H](CCC(=O)O)C(=O)N[C@@H](CC(=O)O)C(=O)N[C@@H](C)C(=O)N[C@@H](CO)C(=O)N1CCC[C@H]1C(=O)N[C@@H](CCC(=O)O)C(=O)N[C@@H](CCC(=O)O)C(=O)N[C@H](C(=O)N[C@@H](CCC(N)=O)C(=O)N[C@@H](CCCNC(=N)N)C(=O)N[C@@H](Cc1ccc(O)cc1)C(=O)N[C@@H](CCC(=O)O)C(=O)N[C@H](C(=O)N[C@@H](CO)C(=O)N[C@@H](CC(C)C)C(=O)N[C@@H](CCCNC(=N)N)C(=O)N[C@@H](Cc1c[nH]cn1)C(=O)N[C@@H](Cc1ccc(O)cc1)C(=O)N[C@@H](Cc1ccc(O)cc1)C(=O)N[C@@H](CC(N)=O)C(=O)N[C@@H](Cc1c[nH]c2ccccc12)C(=O)N[C@@H](CC(C)C)C(=O)N[C@H](C(=O)N[C@@H](CCCNC(=N)N)C(=O)N[C@@H](CCC(N)=O)C(=O)N[C@@H](CCCNC(=N)N)C(=O)N[C@@H](Cc1ccc(O)cc1)C(N)=O)[C@@H](C)O)C(C)C)[C@@H](C)O

Ki: 5.92 nM
B4: Compound 42 (peptide)
peptide: Isovaleryl-APEK([AEEA-AEEA-γGlu-C18 diacid])PEEAASPEELQRYYVSTRHYYNWLTRQRY-NH2
SMILES: CC(C)CC(=O)N[C@@H](C)C(=O)N1CCC[C@H]1C(=O)N[C@@H](CCC(=O)O)C(=O)N[C@@H](CCCCNC(=O)COCCOCCNC(=O)COCCOCCNC(=O)CC[C@H](NC(=O)CCCCCCCCCCCCCCCCC(=O)O)C(=O)O)C(=O)N1CCC[C@H]1C(=O)N[C@@H](CCC(=O)O)C(=O)N[C@@H](CCC(=O)O)C(=O)N[C@@H](C)C(=O)N[C@@H](C)C(=O)N[C@@H](CO)C(=O)N1CCC[C@H]1C(=O)N[C@@H](CCC(=O)O)C(=O)N[C@@H](CCC(=O)O)C(=O)N[C@@H](CC(C)C)C(=O)N[C@@H](CCC(N)=O)C(=O)N[C@@H](CCCNC(=N)N)C(=O)N[C@@H](Cc1ccc(O)cc1)C(=O)N[C@@H](Cc1ccc(O)cc1)C(=O)N[C@H](C(=O)N[C@@H](CO)C(=O)N[C@H](C(=O)N[C@@H](CCCNC(=N)N)C(=O)N[C@@H](Cc1c[nH]cn1)C(=O)N[C@@H](Cc1ccc(O)cc1)C(=O)N[C@@H](Cc1ccc(O)cc1)C(=O)N[C@@H](CC(N)=O)C(=O)N[C@@H](Cc1c[nH]c2ccccc12)C(=O)N[C@@H](CC(C)C)C(=O)N[C@H](C(=O)N[C@@H](CCCNC(=N)N)C(=O)N[C@@H](CCC(N)=O)C(=O)N[C@@H](CCCNC(=N)N)C(=O)N[C@@H](Cc1ccc(O)cc1)C(N)=O)[C@@H](C)O)[C@@H](C)O)C(C)C
